The values below come from patent publication US20110008369A1.

For this test, the target named is human PD-1 (Programmed Cell Death 1), expressed on cells (human) (UniProt Q15116). As to the kind of experiment: cell binding; 0.2 ug/ml IgG on activated human CD4+ cells, 37 C.
human PD-1 (Programmed Cell Death 1), expressed on cells (human), sequence (Q15116 25-288 limits assumed): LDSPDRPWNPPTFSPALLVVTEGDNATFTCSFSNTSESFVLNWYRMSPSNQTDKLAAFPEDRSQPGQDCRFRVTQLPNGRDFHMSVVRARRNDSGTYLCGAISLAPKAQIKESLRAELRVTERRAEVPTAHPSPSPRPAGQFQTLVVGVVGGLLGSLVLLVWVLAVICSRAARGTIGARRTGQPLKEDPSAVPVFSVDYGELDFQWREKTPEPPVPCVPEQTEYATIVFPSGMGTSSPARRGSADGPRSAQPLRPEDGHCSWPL

B1: mAb 6D10 (antibody, part only; not given: light chain variable domain, V domains shown, part only)
VH: EVKLVESGGGLVQPGGSRKLSCAASGFTFSSFGMHWVRQAPEKGLEWVAYVSSASSVIHYADTVKGRFTISRDNPKNTLFLQMTSLRSEDTAMYYCARSGYYGTWFPYWGQGTLVTVS
B1 displayed an MFI of 133 MFI.
